Assay results reported in PMC9927934.

Target: L973F mutant human insulin receptor B isoform, FLAG tagged (human)

Shc phosphorylation in L973F-IR cells against WT-IR cells, immunoblot, 1 to 100 nM insulin for 15 minutes (printed together with Gab-1 and ERK phosphorylation): 2 to 4 fold
B1: Shc (natural protein)
chain: MDLLPPKPKYNPLRNESLSSLEEGASGSTPPEELPSPSASSLGPILPPLPGDDSPTTLCSFFPRMSNLKLANPAGGRLGPKGEPGKAAEDGEGSAGAALRDSGLLPLLQDMNKLSGGGGRRTRVEGGQLGGEEWTRHGSFVNKPTRGWLHPNDKVMGPGVSYLVRYMGCVEVLQSMRALDFNTRTQVTREAISLVCEAVPGAKGATRRRKPCSRPLSSILGRSNLKFAGMPITLTVSTSSLNLMAADCKQIIANHHMQSISFASGGDPDTAEYVAYVAKDPVNQRACHILECPEGLAQDVISTIGQAFELRFKQYLRNPPKLVTPHDRMAGFDGSAWDEEEEEPPDHQYYNDFPGKEPPLGGVVDMRLREGAARPTLPSAQMSSHLGATLPIGQHAAGDHEVRKQMLPPPPCPGRELFDDPSYVNIQNLDKARQAGGGAGPPNPSLNGSAPRDLFDMKPFEDALRVPPPPQSMSMAEQLQGEPWFHGKLSRREAEALLQLNGDFLVRESTTTPGQYVLTGLQSGQPKHLLLVDPEGVVRTKDHRFESVSHLISYHMDNHLPIISAGSELCLQQPVDRKV
